Results from patent US20240279611A1, “EXOSOME PRODUCTION PROMOTING AGENT AND EXOSOME PRODUCTION PROMOTING METHOD” (FULLSTEM CO., LTD., priority 2021, published 2024).

System: adipose-derived mesenchymal stem cells (ADSC)
Assay: Amount of exosomes produced from ADSC, measured with Exo Counter (CD81 sandwich immunoassay) after excluding single factors
Format: cell-based
Conditions: 48-hour culture in DMEM F12 on nonwoven fabric; one factor excluded from the eight factors of Table 1, compared with all eight added; CD81 on exosome surface detected in culture supernatant; FIG. 1
Description: 4×10^4 adipose-derived mesenchymal stem cells (ADSC) were seeded in each well. A nonwoven fabric (3D, BioNOCII, CESCO BIOENGINEERING CO., LTD. in non-adhesive 24 well plate (PrimeSurface (registered trademark) Sumitomo Bakelite Co., Ltd.) was used for cell culture. A basal medium was 1.5 ml of 10% FBS/DMEM F12 (Sigma-Aldrich). The number of days of culture was 6. Starting from Day 2, 1.5 ml of medium was exchanged daily, and the amount of sugar consumed in the used culture medium was measured.
Next, in the cell culture for 48 hours on Day 7 and Day 8, DMEM F12 was used as a medium so as to collect exosomes. In this 48-hour culture, 10% ExoFBS (Funakoshi Co., Ltd.) was added in Test #1. ExoFBS is a product from which bovine-derived exosomes are removed; therefore, influence on an exosome research is reduced.
In Test #3 of the 48-hour culture, only factor A was excluded from the eight factors shown in Table 1, and the other factors were added. In Test #4 of the 48-hour culture, only factor B was excluded from the eight factors shown in Table 1, and the other factors were added. […]
The amount of exosomes produced from ADSC was measured with Exo Counter (Kenwood), using 50 μl each from 1.5 ml of the collected culture supernatant. […] CD81 on the exosome surface was detected to quantify the exosome amount.

B1: SCGF (protein, UniProt Q9Y240 22-323, looked up)
C-type lectin domain family …: ARGAEREWEGGWGGAQEEEREREALMLKHLQEALGLPAGRGDENPAGTVEGKEDWEMEEDQGEEEEEEATPTPSSGPSPSPTPEDIVTYILGRLAGLDAGLHQLHVRLHALDTRVVELTQGLRQLRNAAGDTRDAVQALQEAQGRAEREHGRLEGCLKGLRLGHKCFLLSRDFEAQAAAQARCTARGGSLAQPADRQQMEALTRYLRAALAPYNWPVWLGVHDRRAEGLYLFENGQRVSFFAWHRSPRPELGAQPSASPHPLSPDQPNGGTLENCVAQASDDGSWWDHDCQRRLYYVCEFPF
notes: 29-kDa protein having no N-type sugar chain, belongs to a C-type lectin family
  effect of the factor on the amount of exosomes produced: inhibits the production of exosomes
